Experimental data: the supplement of paper PMC9112550, “Optimization of the antimicrobial peptide Bac7 by deep mutational scanning” (BMC Biology, 2022)

Tested on: Escherichia coli TOP10
Experiment: shrunken log2 fold change of peptide-encoding DNA abundance (4.5 h post-induction vs induction); higher = less antimicrobial activity (less host growth inhibition)
Settings: time post-induction: 4.5 h; library: site-saturation at positions 5, 18, 19, 20
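Also: peptides expressed intracellularly from a pBAD plasmid library in pooled LB shake-flask culture, induced with 0.3% L-arabinose, DNA abundance read by NGS, three biological replicates, DESeq2 with apeglm shrinkage.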

| Sequence | shrunken log2 fold change |
| --- | --- |
| RRIRKRPPRLPRPRPRPMFVPRP | 0.426 |
| RRIRNRPPRLPRPRPRPPSFPRP | -0.0746 |
| RRIRLRPPRLPRPRPRPQVWPRP | 0.000105 |
| RRIRVRPPRLPRPRPRPTRKPRP | 0.575 |
| RRIRVRPPRLPRPRPRPPEVPRP | 0.0599 |
| RRIRTRPPRLPRPRPRPEDRPRP | 0.0062 |
| RRIRKRPPRLPRPRPRPMVRPRP | 0.00145 |
| RRIRERPPRLPRPRPRPCPCPRP | -0.341 |
| RRIRCRPPRLPRPRPRPQIFPRP | 2.2 |
| RRIRLRPPRLPRPRPRPIFEPRP | -0.0366 |
| RRIRNRPPRLPRPRPRPSHSPRP | -0.182 |
| RRIRIRPPRLPRPRPRPGNYPRP | -0.261 |
| RRIRVRPPRLPRPRPRPGGLPRP | 0.00797 |
| RRIRHRPPRLPRPRPRPEQAPRP | -0.0477 |
| RRIRNRPPRLPRPRPRPEVEPRP | 0.154 |
| RRIRSRPPRLPRPRPRPWEQPRP | -0.208 |
| RRIRQRPPRLPRPRPRPDCEPRP | -0.00144 |
| RRIRSRPPRLPRPRPRPCYIPRP | -0.582 |
| RRIRERPPRLPRPRPRPHSCPRP | 0.00997 |
| RRIRARPPRLPRPRPRPHLAPRP | 0.298 |
| RRIRHRPPRLPRPRPRPDAHPRP | -0.119 |
| RRIRCRPPRLPRPRPRPWLYPRP | -0.246 |
| RRIRFRPPRLPRPRPRPFNGPRP | -0.163 |
| RRIRMRPPRLPRPRPRPMGQPRP | 0.579 |
| RRIRDRPPRLPRPRPRPDMQPRP | 1.13 |

| Sequence | shrunken log2 fold change |
| --- | --- |
| RRIRFRPPRLPRPRPRPVGDPRP | 0.535 |
| RRIRHRPPRLPRPRPRPKCIPRP | -0.021 |
| RRIRCRPPRLPRPRPRPFCIPRP | -0.571 |
| RRIRIRPPRLPRPRPRPCRNPRP | -0.604 |
| RRIRCRPPRLPRPRPRPNNRPRP | -0.738 |
| RRIRIRPPRLPRPRPRPPPDPRP | 0.654 |
| RRIRHRPPRLPRPRPRPYKAPRP | -0.484 |
| RRIRKRPPRLPRPRPRPNPPPRP | 0.0342 |
| RRIRNRPPRLPRPRPRPPETPRP | 0.314 |
| RRIRRRPPRLPRPRPRPHNAPRP | 2.48 |
| RRIRDRPPRLPRPRPRPPHYPRP | 0.0761 |
| RRIRPRPPRLPRPRPRPIYSPRP | -0.225 |
| RRIRSRPPRLPRPRPRPGHDPRP | -0.0796 |
| RRIRHRPPRLPRPRPRPCATPRP | 0.0959 |
| RRIRFRPPRLPRPRPRPTYPPRP | -0.497 |
| RRIRSRPPRLPRPRPRPCASPRP | 0.121 |
| RRIRARPPRLPRPRPRPMYRPRP | -0.0452 |
| RRIRRRPPRLPRPRPRPISVPRP | -0.115 |
| RRIRWRPPRLPRPRPRPIQDPRP | 0.0265 |
| RRIRMRPPRLPRPRPRPVWPPRP | 1.07 |
| RRIRDRPPRLPRPRPRPEFPPRP | -0.00168 |
| RRIRYRPPRLPRPRPRPRCLPRP | -0.0564 |
| RRIRNRPPRLPRPRPRPFWIPRP | 0.0948 |
| RRIRYRPPRLPRPRPRPTVHPRP | -1.3 |
| RRIRLRPPRLPRPRPRPKSTPRP | -0.222 |

| Sequence | shrunken log2 fold change |
| --- | --- |
| RRIRQRPPRLPRPRPRPDFEPRP | 0.0209 |
| RRIRWRPPRLPRPRPRPPQQPRP | 0.163 |
| RRIRWRPPRLPRPRPRPIFKPRP | 0.0632 |
| RRIRRRPPRLPRPRPRPGEMPRP | 0.122 |
| RRIRHRPPRLPRPRPRPQFIPRP | -0.0365 |
| RRIRERPPRLPRPRPRPWYCPRP | 0.00607 |
| RRIRLRPPRLPRPRPRPCYRPRP | -0.145 |
| RRIRSRPPRLPRPRPRPQIAPRP | -0.102 |
| RRIRTRPPRLPRPRPRPPIPPRP | 0.128 |
| RRIRWRPPRLPRPRPRPDKPPRP | 0.0507 |
| RRIRCRPPRLPRPRPRPETTPRP | 0.394 |
| RRIRWRPPRLPRPRPRPTREPRP | 0.241 |
| RRIRARPPRLPRPRPRPHTLPRP | -0.213 |
| RRIRGRPPRLPRPRPRPMVDPRP | 0.0455 |
| RRIRHRPPRLPRPRPRPCESPRP | 0.0295 |
| RRIRERPPRLPRPRPRPTHLPRP | 0.229 |
| RRIRTRPPRLPRPRPRPPQKPRP | 0.0412 |
| RRIRIRPPRLPRPRPRPGFYPRP | 0.054 |
| RRIRLRPPRLPRPRPRPQLAPRP | 0.384 |
| RRIRVRPPRLPRPRPRPLTVPRP | 0.0473 |
| RRIRMRPPRLPRPRPRPGWNPRP | 0.226 |
| RRIRYRPPRLPRPRPRPPFIPRP | -0.637 |
| RRIRLRPPRLPRPRPRPFCPPRP | -0.355 |
| RRIRCRPPRLPRPRPRPYVTPRP | -0.893 |
| RRIRTRPPRLPRPRPRPQPEPRP | 0.0514 |

| Sequence | shrunken log2 fold change |
| --- | --- |
| RRIRERPPRLPRPRPRPATQPRP | 0.00813 |
| RRIRCRPPRLPRPRPRPTDSPRP | -0.118 |
| RRIRRRPPRLPRPRPRPIHGPRP | -0.302 |
| RRIRVRPPRLPRPRPRPTTHPRP | -0.0858 |
| RRIRCRPPRLPRPRPRPQLMPRP | 0.285 |
| RRIRPRPPRLPRPRPRPCVCPRP | 0.0289 |
| RRIRNRPPRLPRPRPRPSMSPRP | -0.222 |
| RRIRQRPPRLPRPRPRPLLAPRP | 0.328 |
| RRIRSRPPRLPRPRPRPFAEPRP | 0.256 |
| RRIRIRPPRLPRPRPRPCGAPRP | -0.25 |
| RRIRRRPPRLPRPRPRPFKTPRP | -0.0587 |
| RRIRRRPPRLPRPRPRPLWPPRP | 0.484 |
| RRIRKRPPRLPRPRPRPEFIPRP | 0.146 |
| RRIRYRPPRLPRPRPRPQGGPRP | 0.0299 |
| RRIRCRPPRLPRPRPRPVFPPRP | -0.15 |
| RRIRPRPPRLPRPRPRPGNEPRP | -0.247 |
| RRIRLRPPRLPRPRPRPTMTPRP | -0.256 |
| RRIRYRPPRLPRPRPRPSRFPRP | -0.074 |
| RRIRTRPPRLPRPRPRPITLPRP | -0.162 |
| RRIRWRPPRLPRPRPRPNACPRP | 0.478 |
| RRIRFRPPRLPRPRPRPTANPRP | -0.0711 |
| RRIRCRPPRLPRPRPRPRIGPRP | 0.016 |
| RRIRQRPPRLPRPRPRPHQDPRP | -0.327 |
| RRIRVRPPRLPRPRPRPGLAPRP | 0.166 |
| RRIRHRPPRLPRPRPRPLLYPRP | -0.528 |

| Sequence | shrunken log2 fold change |
| --- | --- |
| RRIRDRPPRLPRPRPRPRRNPRP | 0.225 |
| RRIRARPPRLPRPRPRPVEDPRP | 0.0532 |
| RRIRPRPPRLPRPRPRPADEPRP | 0.0954 |
| RRIRYRPPRLPRPRPRPIHMPRP | -0.0796 |
| RRIRFRPPRLPRPRPRPKEYPRP | -0.468 |
| RRIRVRPPRLPRPRPRPEPKPRP | 0.13 |
| RRIRWRPPRLPRPRPRPPWAPRP | 0.452 |
| RRIRKRPPRLPRPRPRPWWIPRP | -0.0457 |
| RRIRIRPPRLPRPRPRPHAWPRP | 0.0947 |
| RRIRSRPPRLPRPRPRPRCRPRP | 0.385 |
| RRIRARPPRLPRPRPRPIQKPRP | 0.00369 |
| RRIRTRPPRLPRPRPRPNHIPRP | -0.825 |
| RRIRVRPPRLPRPRPRPQSTPRP | 0.00487 |
| RRIRFRPPRLPRPRPRPAHKPRP | 0.225 |
| RRIRLRPPRLPRPRPRPVANPRP | -0.0731 |
| RRIRFRPPRLPRPRPRPPHTPRP | 0.126 |
| RRIRIRPPRLPRPRPRPKVAPRP | 0.283 |
| RRIRSRPPRLPRPRPRPHNKPRP | -0.71 |
| RRIRKRPPRLPRPRPRPVYEPRP | -0.115 |
| RRIRDRPPRLPRPRPRPQMTPRP | 0.103 |
| RRIRARPPRLPRPRPRPNMAPRP | 0.114 |
| RRIRFRPPRLPRPRPRPWRLPRP | -0.799 |
| RRIRPRPPRLPRPRPRPTSTPRP | -0.0454 |
| RRIRSRPPRLPRPRPRPRVHPRP | 0.109 |
| RRIRWRPPRLPRPRPRPLWTPRP | 0.0621 |

| Sequence | shrunken log2 fold change |
| --- | --- |
| RRIRPRPPRLPRPRPRPSMLPRP | -0.186 |
| RRIRYRPPRLPRPRPRPVFLPRP | -0.538 |
| RRIRPRPPRLPRPRPRPFPQPRP | 0.54 |
| RRIRERPPRLPRPRPRPGHNPRP | -0.115 |
| RRIRYRPPRLPRPRPRPQYLPRP | -3.15 |
| RRIRVRPPRLPRPRPRPVLPPRP | 0.0268 |
| RRIRQRPPRLPRPRPRPLTNPRP | -0.483 |
| RRIRPRPPRLPRPRPRPWHNPRP | -0.809 |
| RRIRLRPPRLPRPRPRPERRPRP | -0.0189 |
| RRIRIRPPRLPRPRPRPYEHPRP | -0.0784 |
| RRIRKRPPRLPRPRPRPASGPRP | 0.591 |
| RRIRARPPRLPRPRPRPFNFPRP | -0.0477 |
| RRIRERPPRLPRPRPRPNDHPRP | -0.622 |
| RRIRPRPPRLPRPRPRPTAVPRP | 0.362 |
| RRIRARPPRLPRPRPRPMCRPRP | 0.0586 |
| RRIRVRPPRLPRPRPRPGKHPRP | -0.391 |
| RRIRHRPPRLPRPRPRPNGCPRP | -0.0302 |
| RRIRSRPPRLPRPRPRPVTMPRP | -0.312 |
| RRIRKRPPRLPRPRPRPTNHPRP | -0.0148 |
| RRIRHRPPRLPRPRPRPCLVPRP | 0.214 |
| RRIRQRPPRLPRPRPRPMYMPRP | -0.0317 |
| RRIRSRPPRLPRPRPRPIRLPRP | -0.27 |
| RRIRYRPPRLPRPRPRPSPCPRP | -0.8 |
| RRIRMRPPRLPRPRPRPCRHPRP | -0.0252 |
| RRIRWRPPRLPRPRPRPNISPRP | -0.279 |
